According to patent publication US20230374148A1, “BINDING MOLECULES THAT MULTIMERISE CD45” (UCB BIOPHARMA SRL, priority 2020, published 2023):

Key:
M1 macrophages = test: Caspase-3/7 induction, IncuCyte, M1; assay type: cell-based, human; conditions: over 6 days, BYbe 250-2 nM, Camptothecin, Staurosporine 5 μM
Method: Human PBMC derived from blood leukocyte platelet-apheresis cones (NHSBT Oxford) were banked as frozen aliquots. Prior to an assay being performed, 2 vials of frozen cells, each containing 5×10^7 cells in 1 ml, were thawed in a 37° C. water bath and then added to 50 ml complete media (RPMI 1640+2 mM GlutaMAX+1% Pen/Strep, all previous supplied by Invitrogen, +10% Fetal Bovine Serum (FBS), Sigma Aldrich). Cells were spun (500 g, 5 min, at RT) and re-suspended in 30 ml complete media to wash and spun again. Cells were resuspended in 20 ml MACS buffer (PBS, pH 7.2, 0.5% bovine serum albumin (BSA), and 2 mM EDTA, Sigma Aldrich) and counted on a ChemoMetec NucleoCounter NC-3000 to determine concentration and viability. PBMCs from one donor (UCB-Cones 802) was used in this assay. Monocyte isolation was performed using the Pan Monocyte Isolation Kit (Miltenyi Biotec, cat no. 130-096-537) and LS columns (Miltenyi Biotec, cat no 130-042-401) according to manufacturer's instructions. 100 μl of cells were removed and stored on ice to check monocyte purity post isolation. Isolated cells were stained with BV421 mouse anti-human CD14 (BD Biosciences, cat no. 563743) to check for purity of monocytes using FACS. M-CSF (Sigma Aldrich, cat no. SRP3110) and GM-CSF (R&D Systems, cat no. 215-GM/CF) were prepared at 100 μg/ml. Cells were prepared in M1 media (complete media+50 ng/ml GM-CSF) or M2 media (complete media+50 ng/ml M-CSF) at a concentration of 2.5×10^5 cells/ml. 200 μl cells were plated into two Corning 96 well Black polystyrene microplates (Sigma Aldrich) and incubated at 37° C., 5% CO2. Following a 3-day incubation at 37° C., 5% CO2, the plate was spun (500 g, 5 min, RT), buffer was aspirated, the cells were washed once with PBS and then resuspended in 200 μL of M1 media or M2 media. […] The caspase dye was measured with the green laser (350 ms) and the cytotox dye was measured with a red laser (650 ms). The green dye signal was analysed using Incucyte® Zoom2016B. […]

CD45 ECD = biological target: T1, CD45 ECD (Homo sapiens, UniProt P08575); test: Mass photometry of mixture of CD45 ECD and BYbe; assay type: binding; conditions: for Theoretical mass (kDa): based on observed masses of 62 and 76 kDa
T1 construct: extracellular domain of CD45 (UniProtKB—P08575, residue positions 225-573); TEV cleavage site (C); 10-His tag (C); made in house; host or cells: HEK293
T1 sequence (P08575 225-573): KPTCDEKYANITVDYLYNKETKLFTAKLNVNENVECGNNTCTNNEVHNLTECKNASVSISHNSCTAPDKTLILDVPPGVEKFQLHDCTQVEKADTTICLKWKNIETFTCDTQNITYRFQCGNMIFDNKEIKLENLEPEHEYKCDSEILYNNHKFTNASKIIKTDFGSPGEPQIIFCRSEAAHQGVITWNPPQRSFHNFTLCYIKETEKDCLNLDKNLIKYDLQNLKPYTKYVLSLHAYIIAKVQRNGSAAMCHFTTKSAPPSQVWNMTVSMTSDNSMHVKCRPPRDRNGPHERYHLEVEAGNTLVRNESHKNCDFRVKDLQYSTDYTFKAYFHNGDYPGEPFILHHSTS
Method: Data were acquired on a RefeynOneMP mass photometer (Refeyn Ltd, Oxford, UK) using AcquireMP (Refeyn Ltd, v2.2.1) software and images were processed and analysed using DiscoverMP (v2.3.dev12) software.
Measurements were performed using clean glass coverslips (High Precision coverslips, No. 1.5, 24×50 mm, Marienfeld) mounted with silicon gaskets (CultureWell™ Reusable Gaskets, Grace biolabs) cut in to 2×2 well sections. Protein stocks were diluted directly in Dulbecco's Phosphate-Buffered Saline (DPBS, ThermoFisher). Typical working concentrations of protein complexes were 1-100 nM, depending on the dissociation characteristics of the protein complexes.
The instrument lens was cleaned with Iso-propyl alcohol (IPA), allowed to dry and a drop of Olympus Low Auto Fluorescence Immersion Oil (NC0297589, ThermoFisher) placed on the lens prior to positioning the microscope coverslip with sample in the light stage. To find focus, 15 μl of fresh DPBS was pipetted into a silicone well, the focal position was identified and secured in place with an autofocus system based on total internal reflection for the entire measurement. For each acquisition, 5 μl of diluted protein was introduced into the well, mixed thoroughly (before autofocus stabilization), and movies of 90 s duration recorded. Each sample was measured once, with a new well and buffer used for each measurement. The mixture of CD45 ECD and 4133-6294 BYbe was not pre-incubated and therefore complexing occurred when the 2 proteins were added into the well.

B1: 4133-6294 BYbe: anti-CD45 BYbe (Fab-scFv): 4133 Fab HC-G4S linker-6294 scFv heavy chain paired with 4133 light chain (antibody)
heavy: QEQLVESGGGLVQPEGSLTLTCTASGFSFSGNYYMCWVRQAPGKGLEWIGCLYTGSSGSTYYASWAKGRFTISKTSSTTVTLQMTSLTAADTATYFCARDLGYEIDGYGGLWGQGTLVTVSSGQPKAPSVFPLAPCCGDTPSSTVTLGCLVKGYLPEPVTVTWNSGTLTNGVRTFPSVRQSSGLYSLSSVVSVTSSSQPVTCNVAHPATNTKVDKTVAPSTCSKPGGGGSGGGGSEVQLVESGAELARPGASVKMSCKASGYTFTSYTMHWVKQRPGQCLEWIGYINPSSGYTEYNQKFKDKTTLTADKSSSTAYLQLSSLTSEDSAVYYCARVGDGFYPSWLAYWGQGTLVTVSSGGGGSGGGGSGGGGSGGGGSDIQMTQSPKFLLVSAGDRVTITCKASQSVRNDVAWYQQKPGQSPKLLIFYASKRYTGVPDRFTGSGYGTDFTFTISTVQAEDLAVYFCQQDYSSPTTFGCGTKLEIK
light: AQVLTQTPSPVSAVVGGTVSISCQASQSVYNNNNLSWYQQKPGQPPKLLIYDASKLASGVPSRFKGSGSGTQFTLTISGVQCDDAATYYCLGGYYSSGWYFAFGGGTKVVVKRTPVAPTVLIFPPAADQVATGTVTIVCVANKYFPDVTVTWEVDGTTQTTGIENSKTPQNSADCTYNLSSTLTLTSTQYNSHKEYTCKVTQGTTSVVQSFNRGDC
levels of Caspase-3/7 (M1 macrophages): in-line with NegCtrl BYbe-treated and untreated macrophages
Observed mass (kDa) (CD45 ECD; 1× (CD45 + BYbe) complex in mixture of CD45 ECD and 4133-6294 BYbe): 136 kDa
Theoretical mass (kDa) (CD45 ECD; 1× (CD45 + BYbe)): 138 kDa
Observed mass (kDa) (CD45 ECD; 2× (CD45 + BYbe) complex in mixture of CD45 ECD and 4133-6294 BYbe): 274 kDa
Theoretical mass (kDa) (CD45 ECD; 2× (CD45 + BYbe)): 276 kDa
Observed mass (kDa) (CD45 ECD; 3× (CD45 + BYbe) complex in mixture of CD45 ECD and 4133-6294 BYbe): 415 kDa
Theoretical mass (kDa) (CD45 ECD; 3× (CD45 + BYbe)): 414 kDa
Observed mass (kDa) (CD45 ECD; 4× (CD45 + BYbe) complex in mixture of CD45 ECD and 4133-6294 BYbe): 555 kDa
Theoretical mass (kDa) (CD45 ECD; 4× (CD45 + BYbe)): 552 kDa
